Assay results taken from patent US7538195.
pKd: −log10 of the molar value.

Biological target: biotinylated full-length human IGF-I receptor (human) (UniProt P08069)
Assay: ELISA titration, similar to that of the whole antibody

Fab fragment of EM164 antibody, sequence (VH): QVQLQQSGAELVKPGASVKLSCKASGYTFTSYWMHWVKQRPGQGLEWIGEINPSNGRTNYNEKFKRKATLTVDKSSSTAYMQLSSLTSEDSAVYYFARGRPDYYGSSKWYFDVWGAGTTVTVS
Fab fragment of EM164 antibody, sequence (VL): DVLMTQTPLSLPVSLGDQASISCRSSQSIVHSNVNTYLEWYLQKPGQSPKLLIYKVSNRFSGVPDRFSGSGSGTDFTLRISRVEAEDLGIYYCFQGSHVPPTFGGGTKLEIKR

Substance: Fab fragment of EM164 antibody
- pKd: 9.52
